According to PMC8797470, “Disruption of the pentraxin 3/CD44 interaction as an efficient therapy for triple‐negative breast cancers” (Clinical and Translational Medicine, 2022):

Biological target: T1, full-length PTX3 (#1826-TS; R&D Systems) (UniProt P26022 18-381)
T1 construct: bought protein; source: bought: R&D Systems (#1826-TS)
Experiment: SPR; BIAcore 3000; full-length PTX3 amine-coupled to a CM5 chip (4000-6000 RU); N-terminal CD44 as analyte; PBS pH 7.2, 10 μl/min, 1 min association, 2 min dissociation; 1:1 Langmuir model
Settings: both partners purified

T1 sequence (P26022 18-381): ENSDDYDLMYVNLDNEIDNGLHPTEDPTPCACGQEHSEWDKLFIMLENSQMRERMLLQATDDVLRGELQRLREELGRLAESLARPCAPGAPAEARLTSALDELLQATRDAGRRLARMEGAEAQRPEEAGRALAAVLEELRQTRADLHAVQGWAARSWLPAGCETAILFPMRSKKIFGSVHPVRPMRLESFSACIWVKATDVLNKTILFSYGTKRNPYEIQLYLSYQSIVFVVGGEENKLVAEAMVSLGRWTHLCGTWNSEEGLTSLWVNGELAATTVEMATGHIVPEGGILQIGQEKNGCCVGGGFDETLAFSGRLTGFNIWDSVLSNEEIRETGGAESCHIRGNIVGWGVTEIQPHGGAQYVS

Kd: 21 nM | koff: 2.43e-06 s⁻¹ | kon: 130 M⁻¹ s⁻¹
B1: N-terminal of CD44 (#CD44-3961H; Creative Biomart) (domain or fragment)
chain: QIDLNITCRFAGVFHVEKNGRYSISRTEAADLCKAFNSTLPTMAQMEKALSIGFETCRYGFIEGHVVIPRIHPNSICAANNTGVYILTSNTSQYDTYCFNASAPPEEDCTSVTDLPNAFDGPITITIVNRDGTRYVQKGEYRTNPEDIYPSNPTDDDV
modifications: Bought protein with limits not printed. Limits are the conventional N-terminal hyaluronan-binding domain (Link domain plus flanks, mature start 21 to 178). This range covers the predicted PTX3 …
